Experimental data published in paper PMC3547041.

Biological target: Type II Hsp40 Sis1 (S. cerevisiae (endogenous in yeast)) (UniProt P25294)
Assay: co-IP; yeast cell extracts in Buffer A (150 mM NaCl, 50 mM Hepes pH 7.4, 1 mM EDTA, 0.1% Triton X-100), indicated antisera 1 hour at 4°C, Protein G beads, immunoblotting; extracts with or without Apyrase (Ssa1); WT or Δhsp104 strain (Sis1)

Sequence of UniProt P25294 (P25294 whole entry): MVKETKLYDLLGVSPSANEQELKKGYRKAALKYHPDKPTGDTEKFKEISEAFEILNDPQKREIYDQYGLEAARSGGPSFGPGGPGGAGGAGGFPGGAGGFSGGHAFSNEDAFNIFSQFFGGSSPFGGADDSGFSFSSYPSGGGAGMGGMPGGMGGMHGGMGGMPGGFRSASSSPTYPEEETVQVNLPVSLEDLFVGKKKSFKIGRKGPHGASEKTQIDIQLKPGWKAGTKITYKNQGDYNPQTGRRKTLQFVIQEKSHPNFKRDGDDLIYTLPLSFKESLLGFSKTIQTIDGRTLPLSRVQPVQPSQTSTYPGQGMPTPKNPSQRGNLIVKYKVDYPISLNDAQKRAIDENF

fold change of immunoprecipitable Sis1:slGFP complexes in Δhsp104 against WT: 1.5 fold
Substance: short-lived GFP (slGFP)
